Results on two substances are retold here after patent US20240374745A1.

Assay [1] deals with CTLA-4-hFc. In words: BLI, immobilized CTLA-4-hFc; untreated sample before LRP1 depletion. On the technique in general: BLI is a label-free optical method that tracks binding on a fibre tip over time.
Assay [2] concerns the target PD-1-hFc (human). The assay is described as follows: BLI, immobilized PD-1-hFc; untreated sample before LRP1 depletion.

Sequence of CTLA-4-hFc (chain, as listed by the source limits assumed): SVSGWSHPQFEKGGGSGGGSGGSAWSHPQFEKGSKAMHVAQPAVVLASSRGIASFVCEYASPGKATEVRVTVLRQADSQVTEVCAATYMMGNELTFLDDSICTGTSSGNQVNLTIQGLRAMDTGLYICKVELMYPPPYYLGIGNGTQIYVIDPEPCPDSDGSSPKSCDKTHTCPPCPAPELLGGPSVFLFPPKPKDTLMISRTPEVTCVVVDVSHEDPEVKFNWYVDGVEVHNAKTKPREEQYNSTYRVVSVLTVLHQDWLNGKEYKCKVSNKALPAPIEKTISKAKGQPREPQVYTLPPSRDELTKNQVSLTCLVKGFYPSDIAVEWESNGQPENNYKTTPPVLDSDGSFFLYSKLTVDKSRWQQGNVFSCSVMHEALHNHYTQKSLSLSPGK
Sequence of PD-1-hFc (human) (chain, as listed by the source limits assumed): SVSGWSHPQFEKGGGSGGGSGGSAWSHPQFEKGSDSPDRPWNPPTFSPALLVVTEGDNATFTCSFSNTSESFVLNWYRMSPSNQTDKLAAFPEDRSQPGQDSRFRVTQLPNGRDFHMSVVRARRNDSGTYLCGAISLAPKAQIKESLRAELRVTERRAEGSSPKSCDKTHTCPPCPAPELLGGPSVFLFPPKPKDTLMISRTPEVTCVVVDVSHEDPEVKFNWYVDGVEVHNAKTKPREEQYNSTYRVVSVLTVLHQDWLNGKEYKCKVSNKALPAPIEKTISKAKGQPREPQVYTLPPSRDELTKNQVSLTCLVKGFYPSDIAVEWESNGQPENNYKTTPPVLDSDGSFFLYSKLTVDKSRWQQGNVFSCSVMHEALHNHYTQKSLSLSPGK

“A2M-Ipilimumab, untreated (native conformation)” gave a percent of the maximum binding defined by thermolysin activation in assay [1] of 25%. Take “A2M-Nivolumab, untreated (native conformation)”: the percent of the maximum binding defined by thermolysin activation in assay [2] was found to be 25%.
